Test results from US12428446B2, “Peptide compound or pharmaceutically acceptable salt thereof” (Eyebio Korea, priority 2019, dated 2025).
Primed or numbered codes have the meaning given here. Where no end group is shown, it is not given here. [ ]: non-standard residue; d: D form. The star is where a group is joined. Pro(4-methylene) = C=C1CN[C@H](C(=O)O)C1; Pro(cis-4-F) = O=C(O)[C@@H]1C[C@H](F)CN1; Pro(4,4-Me2) = CC1(C)CN[C@H](C(=O)O)C1; Asu′ = aspartimide (aminosuccinimide); Hyp = O=C(O)[C@@H]1C[C@@H](O)CN1; Tle = CC(C)(C)[C@H](N)C(=O)O; Aib = CC(C)(N)C(=O)O; OiPr = CC(C)O*

Experiment: Evaluation of dissolution stability (content change on storage in dissolved state)
Format: physicochemical
Settings: 1 mg/1 ml dissolved state, 40° C. and RH 75%

Substance | Day 1 content (%) | Day 3 content (%) | Day 7 content (%) | Initial content (%)
Hyp-Gly-Gln-Asp (isopropyl ester)-Gly ([Hyp]GQD(OiPr)G) [Example 115] | 88.57 | 82.00 | 71.64 | 92.71
Hyp-Gly-Gln-Glu-Leu-Leu ([Hyp]GQELL) [Example 88] | 98.94 | 98.07 | 97.37 | 99.23
Hyp-Gly-Gln-His-Gly-Leu-Ala ([Hyp]GQHGLA) [Example 80] | 97.18 | 97.13 | 97.07 | 98.44
Hyp-Gly-Gln-Asp-Aib ([Hyp]GQD[Aib]) [Example 85] | 92.08 | 88.07 | 75.04 | 92.62
Hyp-Gly-Gln-Glu-tert Leu-Leu-Ala ([Hyp]GQE[Tle]LA) [Example 93] | 98.35 | 98.05 | 97.79 | 98.39
Hyp-Gly-Gln-Leu-Leu-Leu-Ala ([Hyp]GQLLLA) [Example 96] | 97.14 | 96.64 | 96.02 | 98.07
Hyp-Gly-Gln-Glu-Val-Leu-Ala ([Hyp]GQEVLA) [Example 87] | 98.07 | 96.57 | 94.38 | 99.14
Hyp-Gly-Gln-Glu-Phenyl Gly-Leu-Ala [Example 94] | 98.77 | 98.43 | 98.15 | 98.59
Hyp-Gly-Gln-Glu-Gly ([Hyp]GQEG) [Example 67] | 99.14 | 98.75 | 98.07 | 98.36
Hyp-Gly-Gln-Asp-Gly-Pro-Lys ([Hyp]GQDGPK) [Example 28] | 98.50 | 97.37 | 96.19 | 99.14
Hyp-Gly-Gln-Asp-Val-Leu [Example 34] ([Hyp]GQDVL) | 97.05 | 95.50 | 91.59 | 97.18
GQDGLA [Example 29] | 93.74 | 92.16 | 90.82 | 95.19
Hyp-Gly-Gln-Leu-Val-Leu-Ala ([Hyp]GQLVLA) [Example 97] | 95.01 | 94.31 | 94.08 | 97.08
Hyp-Gly-Gln-Asu-Gly ([Hyp]GQ[Asu′]G) [Example 100] | 93.43 | 85.30 | 74.12 | 97.58
4,4-dimethyl Pro-Gly-Gln-Asp-Gly-Leu ([Pro(4,4-Me2)]GQDGL) [Example 56] | 84.52 | 79.98 | 51.41 | 90.94
Hyp-Gly-Gln-Leu-Gly-Leu-Ala-Gly ([Hyp]GQLGLAG) [Example 17] | 96.53 | 96.69 | 96.27 | 96.55
Hyp-Gly-Gln-Asp-Val-Leu [Example 22] ([Hyp]GQDVL) | 85.47 | 83.10 | 82.67 | 88.14

Substance | Day 1 content (%) | Day 3 content (%) | Day 7 content (%) | Initial content (%)
Hyp-Gly-Gln-Asp-Val-Leu-Ala ([Hyp]GQDVLA) [Example 23] | 95.25 | 94.22 | 90.56 | 96.40
Leu-Ala-Gly-Pro-Lys (LAGPK) [Example 25] | 85.76 | 81.09 | 77.40 | 89.14
Hyp-Gly-Gln-Asu-Gly-Leu ([Hyp]GQ[Asu′]GL) [Example 101] | 86.61 | 86.38 | 83.40 | 88.72
Hyp-Gly-Gln-Asp-Leu-Leu ([Hyp]GQDLL) [Example 35] | 97.50 | 95.78 | 93.68 | 98.51
PGQDGL [Example 77] | 86.66 | 80.88 | 69.44 | 92.01
Hyp-Gly-Gln-Asp-Gly-Leu (isopropyl ester) [Example 107] | 76.34 | 65.41 | 58.41 | 87.55
cis-4F-Pro-Gly-Gln-Asp-Gly-Leu ([Pro(cis-4-F)]GQDGL) [Example 46] | 87.32 | 81.37 | 62.32 | 93.29
QEGLAG [Example 70] | 90.84 | 88.52 | 85.77 | 92.41
Hyp-Gly-Gln-Asp (isopropyl ester)-Gly-Leu-Ala ([Hyp]GQD(OiPr)GLA) [Example 117] | 90.61 | 85.37 | 76.88 | 94.77
Hyp-Gly-Gln-Asp-Ala-Leu-Ala ([Hyp]GQDALA) [Example 39] | 91.76 | 88.16 | 85.50 | 93.03
Hyp-Gly-Gln-Glu-Gly-Leu ([Hyp]GQEGL) [Example 68] | 98.25 | 97.51 | 96.93 | 98.71
Hyp-Gly-Gln-D Asp-Gly-Leu ([Hyp]GQ[dD]GL) [Example 61] | 87.65 | 83.70 | 56.36 | 92.80
QLGLAGPK [Example 18] | 53.91 | 36.72 | 13.41 | 82.99
Hyp-Gly-Gln-Asp (isopropyl ester)-Gly (isopropyl ester) [Example 110] | 85.18 | 72.44 | 91.84 | 98.00
Hyp-Val-Gln-Asp-Gly ([Hyp]VQDG) [Example 74] | 92.95 | 85.57 | 79.66 | 98.01
4-methylene-Pro-Gly-Gln-Asp-Gly-Leu ([Pro(4-methylene)]GQDGL) [Example 49] | 86.53 | 79.49 | 60.01 | 94.35
Hyp-Gly-Gln-Leu-Leu-Leu ([Hyp]GQLLL) [Example 98] | 99.07 | 98.86 | 98.74 | 99.03
